B1: Notch homolog 2 N-terminal-like protein A (Homo sapiens), Q7Z3S9 (parent)
chain: MCVTYHNGTGYCKCPEGFLGEYCQHRDPCEKNRCQNGGTCVAQAMLGKATCRCASGFTGEDCQYSTSHPCFVSRPCLNGGTCHMLSRDTYECTCQVGFTGKECQWTDACLSHPCANGSTCTTVANQFSCKCLTGFTGQKCETDVNECDIPGHCQHGGTCLNLPGSYQCQCLQGFTGQYCDSLYVPCAPSPCVNGGTCRQTGDFTFECNCLPETVRRGTELWERDREVWNGKEHDEN
partner: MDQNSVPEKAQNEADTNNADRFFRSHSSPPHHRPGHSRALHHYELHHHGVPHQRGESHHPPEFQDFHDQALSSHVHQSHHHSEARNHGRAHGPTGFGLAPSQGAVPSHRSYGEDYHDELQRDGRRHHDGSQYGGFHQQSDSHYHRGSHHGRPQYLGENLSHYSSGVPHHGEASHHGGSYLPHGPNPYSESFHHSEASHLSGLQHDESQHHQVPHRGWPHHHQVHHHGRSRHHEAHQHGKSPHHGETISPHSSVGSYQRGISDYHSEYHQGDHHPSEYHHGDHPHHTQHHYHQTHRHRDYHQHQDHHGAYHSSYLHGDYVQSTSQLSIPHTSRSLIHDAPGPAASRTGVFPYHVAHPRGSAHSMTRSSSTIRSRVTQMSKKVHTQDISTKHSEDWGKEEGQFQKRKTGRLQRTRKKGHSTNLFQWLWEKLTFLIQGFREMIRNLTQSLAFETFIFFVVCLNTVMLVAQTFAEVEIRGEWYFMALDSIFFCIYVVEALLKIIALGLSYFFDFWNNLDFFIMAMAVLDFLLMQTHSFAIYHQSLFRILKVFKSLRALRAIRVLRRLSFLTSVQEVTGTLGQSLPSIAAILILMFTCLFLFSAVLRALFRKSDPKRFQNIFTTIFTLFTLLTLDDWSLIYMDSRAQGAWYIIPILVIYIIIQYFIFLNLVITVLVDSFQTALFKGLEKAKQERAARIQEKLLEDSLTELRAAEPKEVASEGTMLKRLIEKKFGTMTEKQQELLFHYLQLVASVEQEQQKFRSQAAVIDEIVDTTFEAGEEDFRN
B2: Protein FAM9B (Homo sapiens), Q8IZU0 (parent)
chain: MAAWGKKHAGKDPVRDECEERNRFTETREEDVTDEHGEREPFAETDEHTGANTKKPEDTAEDLTAKRKRMKMDKTCSKTKNKSKHALRKKQLKRQKRDYIHSLKLLNVLEEYITDEQKEEEEEEGEEEELIRIFQEQQKKWQQYRSVRRERLKEMKLLRDQFVKALEDFEDLCDRVFSDEDSELDN
partner: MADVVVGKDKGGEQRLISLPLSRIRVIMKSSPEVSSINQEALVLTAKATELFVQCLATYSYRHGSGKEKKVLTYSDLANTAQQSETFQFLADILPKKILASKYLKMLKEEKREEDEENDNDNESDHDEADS
B3: U3 small nucleolar RNA-associated protein 14 homolog C (Homo sapiens), Q5TAP6 (parent)
chain: MNVNQVAENLALSHQEELVDLPKNYPLSENEDEGDSDGERKHQKLLEAIISLDGKNRRKLAERSEASLKVSEFSVSSEGSGEKLGLADLLEPVKTSSSLATVKKQLNRVKSKKVVELPLNKEKIEQIHREVAFSKTSQVLSKWDPIILKNQQAEQLVFPLGKEQPAIAPIEHALSGWKARTPLEQEIFNLLHKNKQPVTDPLLTPMEKASLQAMSLEEAKMHRAELQRARALQSYYEAKARKEKKIKSKKYHKVVKKGKAKKALKEFEQLQKVNPTVALEEMEKIENARMMERMSLKHQNSGKWAKSKAIMAKYDLEARQAMQEQLAKNKELTQKLQVASESEEEEGGTEVEELLVPHVANEVQMNVDGPNPWMFRSCTSDTKEAATQEDPEQVPELAAHEVSASEAEERPVAEEEILLREFEERQSLRKRSELNQDAEPASSQETKDSSSQEVLSELRALSQKLKEKHQSRKQKASSEGTVPQVQREEPAPEEAEPLLLQRSERVQTLEELEELGKEDCFQNKELPRPVLEGQQSERTPNNRPDAPKEKKEKEQLINLQNFLTTQSPSVRSLAVPTIIEELEDEEERDQRQMIKEAFAGDDVIRDFLKEKREAVEASKPKDVDLTLPGWGEWGGVGLKPSAKKRRQFLIKAPEGPPRKDKNLPNVIISEKRNIHAAAHQVQVLPYPFTHHRQFERTIQTPIGSTWNTQRAFQKLTTPKVVTKPGHIIKPIKAEDVGYQSSSRSDLPVIQRNPKRITTRHNKEEKL
partner: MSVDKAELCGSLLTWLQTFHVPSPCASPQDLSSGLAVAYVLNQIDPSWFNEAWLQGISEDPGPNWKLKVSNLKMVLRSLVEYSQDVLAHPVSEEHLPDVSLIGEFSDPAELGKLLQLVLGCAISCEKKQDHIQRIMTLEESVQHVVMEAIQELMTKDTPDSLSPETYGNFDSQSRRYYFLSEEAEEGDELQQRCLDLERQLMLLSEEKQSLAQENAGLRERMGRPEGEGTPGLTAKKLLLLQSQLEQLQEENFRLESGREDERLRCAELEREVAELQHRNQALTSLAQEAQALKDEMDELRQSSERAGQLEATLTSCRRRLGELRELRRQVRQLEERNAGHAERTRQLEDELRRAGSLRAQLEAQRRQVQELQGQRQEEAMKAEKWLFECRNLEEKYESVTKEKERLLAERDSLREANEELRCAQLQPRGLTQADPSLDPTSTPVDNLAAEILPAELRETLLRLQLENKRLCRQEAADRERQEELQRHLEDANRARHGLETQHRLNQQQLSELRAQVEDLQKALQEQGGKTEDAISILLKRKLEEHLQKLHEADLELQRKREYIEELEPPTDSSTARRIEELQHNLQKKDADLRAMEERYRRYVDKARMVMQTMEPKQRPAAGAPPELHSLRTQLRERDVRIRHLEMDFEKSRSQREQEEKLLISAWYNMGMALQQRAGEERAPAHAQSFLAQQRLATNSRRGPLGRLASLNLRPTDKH
B4: Zinc finger CCCH-type with G patch domain-containing protein (Homo sapiens), Q8N5A5 (parent)
chain: MDEESLESALQTYRAQLQQVELALGAGLDSSEQADLRQLQGDLKELIELTEASLVSVRKSSLLAALDEERPGRQEDAEYQAFREAITEAVEAPAAARGSGSETVPKAEAGPESAAGGQEEEEGEDEEELSGTKVSAPYYSSWGTLEYHNAMVVGTEEAEDGSAGVRVLYLYPTHKSLKPCPFFLEGKCRFKENCRFSHGQVVSLDELRPFQDPDLSSLQAGSACLAKHQDGLWHAARITDVDNGYYTVKFDSLLLREAVVEGDGILPPLRTEATESDSDSDGTGDSSYARVVGSDAVDSAQSSALCPSLAVVGSDAVDSGTCSSAFAGWEVHTRGIGSRLLTKMGYEFGKGLGRHAEGRVEPIHAVVLPRGKSLDQCVETLQKQTRVGKAGTNKPPRCRGRGARPGGRPAPRNVFDFLNEKLQGQAPGALEAGAAPAGRRSKDMYHASKSAKRALSLRLFQTEEKIERTQRDIRSIQEALARNAGRHSVASAQLQEKLAGAQRQLGQLRAQEAGLQQEQRKADTHKKMTEF
partner: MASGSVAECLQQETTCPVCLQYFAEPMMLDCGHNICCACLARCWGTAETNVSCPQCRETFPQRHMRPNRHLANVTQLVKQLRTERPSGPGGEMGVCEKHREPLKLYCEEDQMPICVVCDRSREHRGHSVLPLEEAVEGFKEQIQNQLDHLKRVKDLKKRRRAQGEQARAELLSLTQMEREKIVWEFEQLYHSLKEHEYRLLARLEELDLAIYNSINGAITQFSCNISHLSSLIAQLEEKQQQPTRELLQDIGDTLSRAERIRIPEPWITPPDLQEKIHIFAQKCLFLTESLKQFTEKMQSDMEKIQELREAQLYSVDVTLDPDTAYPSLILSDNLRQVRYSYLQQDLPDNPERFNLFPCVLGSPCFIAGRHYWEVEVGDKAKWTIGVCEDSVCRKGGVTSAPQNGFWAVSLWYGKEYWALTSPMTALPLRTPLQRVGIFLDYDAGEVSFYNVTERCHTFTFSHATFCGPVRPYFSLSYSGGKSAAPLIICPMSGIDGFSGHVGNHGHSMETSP
B5: NF-kappa-B inhibitor delta (Homo sapiens), Q8NI38 (parent)
chain: MEAGPWRVSAPPSGPPQFPAVVPGPSLEVARAHMLALGPQQLLAQDEEGDTLLHLFAARGLRWAAYAAAEVLQVYRRLDIREHKGKTPLLVAAAANQPLIVEDLLNLGAEPNAADHQGRSVLHVAATYGLPGVLLAVLNSGVQVDLEARDFEGLTPLHTAILALNVAMRPSDLCPRVLSTQARDRLDCVHMLLQMGANHTSQEIKSNKTVLHLAVQAANPTLVQLLLELPRGDLRTFVNMKAHGNTALHMAAALPPGPAQEAIVRHLLAAGADPTLRNLENEQPVHLLRPGPGPEGLRQLLKRSRVAPPGLSS
partner: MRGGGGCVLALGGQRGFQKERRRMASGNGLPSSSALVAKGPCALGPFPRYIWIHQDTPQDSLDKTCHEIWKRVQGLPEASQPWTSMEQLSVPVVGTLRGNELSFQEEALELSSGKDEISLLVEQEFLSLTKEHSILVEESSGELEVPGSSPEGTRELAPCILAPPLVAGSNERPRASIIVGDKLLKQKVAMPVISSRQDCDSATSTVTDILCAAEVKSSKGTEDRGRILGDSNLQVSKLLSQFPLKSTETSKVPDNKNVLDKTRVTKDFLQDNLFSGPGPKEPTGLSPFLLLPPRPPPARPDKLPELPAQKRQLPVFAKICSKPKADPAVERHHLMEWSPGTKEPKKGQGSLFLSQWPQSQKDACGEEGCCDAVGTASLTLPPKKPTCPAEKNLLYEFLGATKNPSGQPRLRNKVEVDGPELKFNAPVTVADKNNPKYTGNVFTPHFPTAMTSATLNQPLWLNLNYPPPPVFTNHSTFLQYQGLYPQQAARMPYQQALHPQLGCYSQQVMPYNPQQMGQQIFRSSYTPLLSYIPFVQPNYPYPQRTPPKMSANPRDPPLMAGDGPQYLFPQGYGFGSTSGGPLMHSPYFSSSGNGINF

Variants of: B1
Conditions: with ctsr1_human CATSPER1, Q8NEC5

Row | Variant | effect of a mutation on the interaction
1 | R74Q | with no effect

Variants of: B2
Conditions: with chrc1_human CHRAC1, Q9NRG0

Row | Variant | effect of a mutation on the interaction
2 | R23H | with no effect

Variants of: B3
Conditions: with hook2_human HOOK2, Q96ED9

Row | Variant | effect of a mutation on the interaction
3 | A652T | with no effect
4 | V570M | with no effect
5 | R319H | with no effect
6 | K247E | with no effect
7 | G85V | with no effect
8 | R672H | with no effect
9 | I170V | with no effect
10 | V109D | with no effect

Variants of: B4
Conditions: with tri27_human TRIM27, P14373

Row | Variant | effect of a mutation on the interaction
11 | S61R | with no effect

Variants of: B5
Conditions: with ca094_human C1orf94, Q6P1W5

Row | Variant | effect of a mutation on the interaction
12 | V29A | with no effect

Reference: IntAct's records for PubMed 31515488
